Test results from IntAct's records for PubMed 18354501.

What was measured:
t2ea_human GTF2E1 [1] = target: t2ea_human GTF2E1 (UniProt P29083)
t2ea_human GTF2E1 [2] = target: t2ea_human GTF2E1 (UniProt P29083); remark: listed apart in the source
t2ea_human GTF2E1 [3] = target: t2ea_human GTF2E1 (UniProt P29083); remark: listed apart in the source
t2ea_human GTF2E1 [4] = target: t2ea_human GTF2E1 (UniProt P29083); remark: listed apart in the source
t2ea_human GTF2E1 [5] = target: t2ea_human GTF2E1 (UniProt P29083); remark: listed apart in the source
t2ea_human GTF2E1 [6] = target: t2ea_human GTF2E1 (UniProt P29083); remark: listed apart in the source

Chain of t2ea_human GTF2E1 (P29083 whole entry): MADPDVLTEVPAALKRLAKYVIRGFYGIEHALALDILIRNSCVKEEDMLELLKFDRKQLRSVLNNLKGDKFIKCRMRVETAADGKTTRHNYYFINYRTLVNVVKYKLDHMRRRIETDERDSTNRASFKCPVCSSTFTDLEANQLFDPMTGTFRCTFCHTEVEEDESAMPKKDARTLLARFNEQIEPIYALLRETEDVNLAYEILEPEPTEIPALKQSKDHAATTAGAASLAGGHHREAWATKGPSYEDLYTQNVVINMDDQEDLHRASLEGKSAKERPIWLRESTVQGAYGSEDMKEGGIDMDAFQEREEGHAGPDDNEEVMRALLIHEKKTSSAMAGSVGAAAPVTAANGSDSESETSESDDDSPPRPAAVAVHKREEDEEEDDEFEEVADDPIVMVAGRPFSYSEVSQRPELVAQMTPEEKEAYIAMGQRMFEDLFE
Chain of General transcription factor IIH subunit 1 (Homo sapiens), P32780 Q66A (P32780 whole entry Q66A): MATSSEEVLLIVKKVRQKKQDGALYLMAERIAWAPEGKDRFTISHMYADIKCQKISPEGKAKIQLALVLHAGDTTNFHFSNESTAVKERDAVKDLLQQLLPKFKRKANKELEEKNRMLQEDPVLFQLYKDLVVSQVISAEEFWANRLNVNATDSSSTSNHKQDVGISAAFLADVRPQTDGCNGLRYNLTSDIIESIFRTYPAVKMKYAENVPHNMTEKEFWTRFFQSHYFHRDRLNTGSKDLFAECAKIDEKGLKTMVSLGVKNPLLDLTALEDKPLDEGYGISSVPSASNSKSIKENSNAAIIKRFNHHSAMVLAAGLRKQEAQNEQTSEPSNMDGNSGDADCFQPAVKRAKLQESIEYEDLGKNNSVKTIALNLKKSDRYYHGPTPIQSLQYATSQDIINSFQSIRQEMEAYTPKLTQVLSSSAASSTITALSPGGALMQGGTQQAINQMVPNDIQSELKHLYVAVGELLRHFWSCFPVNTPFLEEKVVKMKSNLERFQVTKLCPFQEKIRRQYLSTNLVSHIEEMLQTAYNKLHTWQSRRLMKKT
Chain of General transcription factor IIH subunit 1 (Homo sapiens), P32780 V68A (P32780 whole entry V68A): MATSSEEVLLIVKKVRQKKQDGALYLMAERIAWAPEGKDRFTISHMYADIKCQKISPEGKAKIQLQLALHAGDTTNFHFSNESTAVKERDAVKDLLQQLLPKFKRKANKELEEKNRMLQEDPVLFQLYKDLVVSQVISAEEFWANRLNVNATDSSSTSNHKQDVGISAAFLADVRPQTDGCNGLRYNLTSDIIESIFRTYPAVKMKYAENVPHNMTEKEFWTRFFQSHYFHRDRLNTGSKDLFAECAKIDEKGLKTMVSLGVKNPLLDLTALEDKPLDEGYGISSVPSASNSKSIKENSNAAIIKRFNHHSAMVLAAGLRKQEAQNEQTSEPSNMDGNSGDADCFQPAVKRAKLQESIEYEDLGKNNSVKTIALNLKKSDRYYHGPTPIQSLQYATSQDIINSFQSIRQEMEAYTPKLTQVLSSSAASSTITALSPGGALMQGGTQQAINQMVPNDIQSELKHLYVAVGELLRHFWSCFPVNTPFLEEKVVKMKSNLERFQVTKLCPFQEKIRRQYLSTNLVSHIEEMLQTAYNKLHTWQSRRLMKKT
Chain of General transcription factor IIH subunit 1 (Homo sapiens), P32780 K54A (P32780 whole entry K54A): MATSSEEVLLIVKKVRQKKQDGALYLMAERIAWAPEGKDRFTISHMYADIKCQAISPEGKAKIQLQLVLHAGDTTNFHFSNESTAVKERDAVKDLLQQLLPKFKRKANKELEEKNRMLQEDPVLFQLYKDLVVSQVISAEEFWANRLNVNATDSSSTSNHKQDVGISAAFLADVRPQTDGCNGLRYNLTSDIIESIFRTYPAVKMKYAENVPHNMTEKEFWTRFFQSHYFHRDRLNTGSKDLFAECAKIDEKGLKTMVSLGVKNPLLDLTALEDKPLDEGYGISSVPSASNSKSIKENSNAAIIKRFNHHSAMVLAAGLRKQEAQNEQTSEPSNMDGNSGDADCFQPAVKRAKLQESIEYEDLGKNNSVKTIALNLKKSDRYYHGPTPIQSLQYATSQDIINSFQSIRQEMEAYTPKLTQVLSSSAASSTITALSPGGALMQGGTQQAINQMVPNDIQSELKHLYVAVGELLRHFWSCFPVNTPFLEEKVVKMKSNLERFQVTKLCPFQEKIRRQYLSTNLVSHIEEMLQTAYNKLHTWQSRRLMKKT
Chain of General transcription factor IIH subunit 1 (Homo sapiens), P32780 K19A (P32780 whole entry K19A): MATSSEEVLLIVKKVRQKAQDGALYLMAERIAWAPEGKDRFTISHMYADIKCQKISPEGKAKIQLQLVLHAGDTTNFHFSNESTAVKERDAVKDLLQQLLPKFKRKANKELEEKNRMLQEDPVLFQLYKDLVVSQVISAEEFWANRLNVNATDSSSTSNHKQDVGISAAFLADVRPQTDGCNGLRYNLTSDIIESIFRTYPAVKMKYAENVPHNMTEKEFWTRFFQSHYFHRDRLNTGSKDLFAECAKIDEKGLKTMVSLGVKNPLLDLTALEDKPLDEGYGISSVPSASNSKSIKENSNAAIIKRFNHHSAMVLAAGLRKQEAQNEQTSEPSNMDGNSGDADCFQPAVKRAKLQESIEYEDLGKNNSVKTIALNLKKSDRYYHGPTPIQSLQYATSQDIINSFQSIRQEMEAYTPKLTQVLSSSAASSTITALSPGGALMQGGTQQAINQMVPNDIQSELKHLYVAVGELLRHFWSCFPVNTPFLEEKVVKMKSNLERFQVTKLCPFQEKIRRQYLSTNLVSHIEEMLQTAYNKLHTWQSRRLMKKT
Chain of General transcription factor IIH subunit 1 (Homo sapiens), P32780 K18A (P32780 whole entry K18A): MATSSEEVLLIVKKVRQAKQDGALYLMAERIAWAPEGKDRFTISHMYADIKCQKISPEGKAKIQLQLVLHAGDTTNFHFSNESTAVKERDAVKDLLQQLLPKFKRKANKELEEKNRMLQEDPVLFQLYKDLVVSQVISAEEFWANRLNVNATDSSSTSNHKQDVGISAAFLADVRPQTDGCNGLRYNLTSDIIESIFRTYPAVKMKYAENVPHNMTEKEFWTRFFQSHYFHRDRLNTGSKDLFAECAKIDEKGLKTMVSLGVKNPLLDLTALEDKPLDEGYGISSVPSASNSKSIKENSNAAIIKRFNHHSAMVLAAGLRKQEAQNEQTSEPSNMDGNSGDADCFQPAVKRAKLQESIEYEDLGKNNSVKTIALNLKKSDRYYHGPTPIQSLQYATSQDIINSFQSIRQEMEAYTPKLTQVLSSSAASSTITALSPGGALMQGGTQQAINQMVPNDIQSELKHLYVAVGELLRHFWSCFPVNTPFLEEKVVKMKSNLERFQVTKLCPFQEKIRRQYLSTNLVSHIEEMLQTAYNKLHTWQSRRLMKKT

General transcription factor IIH subunit 1 (Homo sapiens), P32780 K54A
effect of a mutation on the interaction (t2ea_human GTF2E1 [1]): disrupting interaction

General transcription factor IIH subunit 1 (Homo sapiens), P32780 K19A
effect of a mutation on the interaction (t2ea_human GTF2E1 [2]): disrupting interaction

General transcription factor IIH subunit 1 (Homo sapiens), P32780 Q66A
effect of a mutation on the interaction (t2ea_human GTF2E1 [3]): decreasing interaction
effect of a mutation on the interaction (t2ea_human GTF2E1 [4]): disrupting interaction

General transcription factor IIH subunit 1 (Homo sapiens), P32780 K18A
effect of a mutation on the interaction (t2ea_human GTF2E1 [5]): decreasing interaction

General transcription factor IIH subunit 1 (Homo sapiens), P32780 V68A
effect of a mutation on the interaction (t2ea_human GTF2E1 [6]): decreasing interaction
